Measured values reported in article PMC10382678.

Target: ectoLRP4-AP (alkaline phosphatase-conjugated ectodomain of mouse LRP4) (mouse) (UniProt Q8VI56)
Assay: ELISA; plate-binding assay, competition: 500 nM purified recombinant neural agrin added to 25 nM ectoLRP4-AP on ColQ-coated wells; agrin as the competitor that binds LRP4

ectoLRP4-AP (alkaline phosphatase-conjugated ectodomain of mouse LRP4) (mouse), sequence (Q8VI56 21-1725): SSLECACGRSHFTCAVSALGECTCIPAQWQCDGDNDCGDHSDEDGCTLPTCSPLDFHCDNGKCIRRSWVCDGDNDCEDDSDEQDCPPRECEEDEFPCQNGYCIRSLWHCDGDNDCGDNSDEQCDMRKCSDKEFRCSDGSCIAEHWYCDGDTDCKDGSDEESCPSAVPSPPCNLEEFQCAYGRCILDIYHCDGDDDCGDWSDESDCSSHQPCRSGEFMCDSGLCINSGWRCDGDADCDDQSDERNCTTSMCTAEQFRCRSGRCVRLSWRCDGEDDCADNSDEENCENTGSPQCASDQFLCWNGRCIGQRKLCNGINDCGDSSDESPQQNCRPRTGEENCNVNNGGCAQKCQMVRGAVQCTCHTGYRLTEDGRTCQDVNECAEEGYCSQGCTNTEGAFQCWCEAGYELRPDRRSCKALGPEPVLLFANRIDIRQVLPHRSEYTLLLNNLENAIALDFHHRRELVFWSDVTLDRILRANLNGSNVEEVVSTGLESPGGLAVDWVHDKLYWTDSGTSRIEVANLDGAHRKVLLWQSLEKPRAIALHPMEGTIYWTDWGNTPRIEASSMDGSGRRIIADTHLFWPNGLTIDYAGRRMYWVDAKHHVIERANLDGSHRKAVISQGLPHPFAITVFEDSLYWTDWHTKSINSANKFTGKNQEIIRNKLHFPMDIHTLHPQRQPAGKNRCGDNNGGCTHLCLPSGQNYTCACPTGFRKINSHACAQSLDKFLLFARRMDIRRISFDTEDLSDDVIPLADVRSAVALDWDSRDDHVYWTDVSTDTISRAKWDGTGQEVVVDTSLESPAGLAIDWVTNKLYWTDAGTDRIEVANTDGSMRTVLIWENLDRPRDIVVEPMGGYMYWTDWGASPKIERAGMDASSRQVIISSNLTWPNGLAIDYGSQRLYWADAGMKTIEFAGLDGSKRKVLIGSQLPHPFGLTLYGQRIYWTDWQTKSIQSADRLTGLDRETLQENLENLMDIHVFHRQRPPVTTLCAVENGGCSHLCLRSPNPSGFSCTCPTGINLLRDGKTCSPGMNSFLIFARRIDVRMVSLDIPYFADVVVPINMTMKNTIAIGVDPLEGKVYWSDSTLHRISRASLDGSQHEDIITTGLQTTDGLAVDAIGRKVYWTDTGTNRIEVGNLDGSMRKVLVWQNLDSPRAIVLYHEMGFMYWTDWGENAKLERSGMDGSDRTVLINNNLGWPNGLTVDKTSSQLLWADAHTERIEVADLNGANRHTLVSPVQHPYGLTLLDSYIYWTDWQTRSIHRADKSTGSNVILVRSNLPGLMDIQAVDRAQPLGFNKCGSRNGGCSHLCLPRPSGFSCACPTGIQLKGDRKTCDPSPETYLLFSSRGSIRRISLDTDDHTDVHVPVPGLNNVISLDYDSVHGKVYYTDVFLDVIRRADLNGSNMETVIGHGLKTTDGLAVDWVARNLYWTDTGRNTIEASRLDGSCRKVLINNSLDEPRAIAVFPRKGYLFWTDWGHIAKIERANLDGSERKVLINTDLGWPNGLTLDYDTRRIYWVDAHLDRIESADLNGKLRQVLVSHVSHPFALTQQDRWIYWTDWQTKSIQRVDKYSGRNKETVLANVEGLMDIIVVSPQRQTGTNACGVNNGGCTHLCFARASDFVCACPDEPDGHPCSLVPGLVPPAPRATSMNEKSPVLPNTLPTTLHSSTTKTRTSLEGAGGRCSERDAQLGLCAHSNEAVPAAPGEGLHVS

Substance: recombinant rat neural agrin (Sf21-derived C-terminal agrin, His-tagged, R&D Systems) (from UniProt P25304 1-1959) (ligand)
- percent reduction of ectoLRP4-AP (25 nM) binding to ColQ by 500 nM agrin: > 50%
